Assay results as given in the supplement of paper PMC10724198.

System: Saccharomyces cerevisiae
Assay: protein stability index of tFT-peptide fusion in deletion strain of DAS1 (PSI (0-1 scale)); higher = more stable (slower turnover)
Experimental: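 MPS profiling in S. cerevisiae of two library types built from selected 12-aa C-degron peptides (IN1, IN2, LN1, LN3, VN2, R1-R5, W1-W3, Atg1 and Rpa12 C-termini): saturation mutagenesis libraries and C-terminal +1 capping libraries (13 aa). Each peptide is fused to the C-terminus of a sfGFP-mCherry timer, after a GGGS linker. Cells are FACS-sorted into 8 mCherry/sfGFP bins and sequenced. PSI runs from 0 (unstable) to 1 (stable), measured once in wild type and in the das1Δ or doa10Δ background.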
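Note: PSI is a weighted mean of each variant's read distribution over the sorted stability bins, computed only for variants having over 10 reads in total.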

Sequence	protein stability index
AMWRVGLWRGAS	0.65
AQWRVGLWRGAS	0.709
ARWREGLWRGAS	0.695
ARWRVGCWRGAS	0.637
ARWRVGDWRGAS	0.714
ARWRVGIWRGAS	0.691
ARWRVGKWRGAS	0.687
ARWRVGLCRGAS	0.671
ARWRVGLHRGAS	0.685
ARWRVGLIRGAS	0.665
ARWRVGLWLGAS	0.618
ARWRVGLWMGAS	0.667
ARWRVGLWRGAG	0.64
ARWRVGLWRGAH	0.688
ARWRVGLWRGASE	0.666
ARWRVGLWRGASL	0.715
ARWRVGLWRGASN	0.689
ARWRVGLWRGASY	0.69
ARWRVGLWRGDS	0.688
ARWRVGLWRGMS	0.663
ARWRVGLWRIAS	0.677
ARWRVGLWRQAS	0.678
ARWRVGLWRVAS	0.67
ARWRVGLWYGAS	0.718

Sequence	protein stability index
ARWRVGVWRGAS	0.686
ARWWVGLWRGAS	0.742
CDSCGYKFRTNN	0.691
CKHKKGQKQKIN	0.568
CTMCGYKFRTNN	0.69
CTSAGYKFRTNN	0.678
CTSCGHKFRTNN	0.706
CTSCGRKFRTNN	0.717
CTSCGSKFRTNN	0.692
CTSCGYKFLTNN	0.696
CTSCGYKFQTNN	0.723
CTSCGYKFRSNN	0.715
CTSCGYKFRTGN	0.701
CTSCGYKFRTNI	0.701
CTSCGYKFRTNNL	0.715
CTSCGYKFRTNNQ	0.673
CTSCGYKFRTNV	0.681
CTSCGYKFRTWN	0.727
CTSCGYTFRTNN	0.708
CTSCIYKFRTNN	0.666
CTSCPYKFRTNN	0.666
CTSYGYKFRTNN	0.688
EKHKKGQKQKIN	0.613
FKMRWTFRYWVN	0.735

Sequence	protein stability index
FLMRWTFRYWVN	0.342
FPMRWTFRYWVN	0.574
FSHRWTFRYWVN	0.568
FSLAASFWRVVG	0.671
FSMNWTFRYWVN	0.496
FSMQWTFRYWVN	0.466
FSMRMTFRYWVN	0.464
FSMRWTFGYWVN	0.404
FSMRWTFMYWVN	0.456
FSMRWTFQYWVN	0.502
FSMRWTFRLWVN	0.291
FSMRWTFRNWVN	0.589
FSMRWTFRYAVN	0.585
FSMRWTFRYWVNA	0.496
FSMRWTFVYWVN	0.327
FSMRWTKRYWVN	0.545
FSMRWVFRYWVN	0.495
FSMVWTFRYWVN	0.314
FSQRWTFRYWVN	0.563
GKILRQKMNHQN	0.677
HRWRVGLWRGAS	0.676
IRWRVGLWRGAS	0.707
KGHKKGQKQKIN	0.57
KKAKKGQKQKIN	0.624

Sequence	protein stability index
KKHDKGQKQKIN	0.587
KKHKGGQKQKIN	0.584
KKHKKGQKDKIN	0.63
KKHKKGQKQKGN	0.616
KKHKKGQKQKINI	0.661
KKHKKGQKQKINV	0.657
KKHKKGQKQKINY	0.663
KKHKKGQKQKIR	0.595
KKHKKGQKQKVN	0.599
KKHKKGQKQKWN	0.587
KKHKKGQKQQIN	0.554
KKHKKGQKRKIN	0.655
KKHKKGQQQKIN	0.571
KKHKKGSKQKIN	0.673
KKHKKHQKQKIN	0.521
KKHKKIQKQKIN	0.631
KKHKKMQKQKIN	0.571
KKHKKWQKQKIN	0.585
KKHKQGQKQKIN	0.73
KKHKRGQKQKIN	0.617
KKHNKGQKQKIN	0.645
KKHVKGQKQKIN	0.606
LAILRQKMNHQN	0.67
LHVYLSCVACIN	0.109

Sequence	protein stability index
LKIARQKMNHQN	0.694
LKIDRQKMNHQN	0.676
LKILNQKMNHQN	0.688
LKILRQKANHQN	0.688
LKILRQKMNFQN	0.674
LKILRQKMNHCN	0.669
LKILRQKMNHQNV	0.662
LKILRQKMNHQY	0.684
LKILRQKMNPQN	0.677
LKILRQKMNQQN	0.676
LKILRQKMNYQN	0.657
LKILRQKMVHQN	0.657
LKILRQNMNHQN	0.667
LKILRTKMNHQN	0.678
LKMLRQKMNHQN	0.683
LMILRQKMNHQN	0.676
LQVYLSCVACIN	0.0994
LRVYLSCVACIN	0.121
LTSCGYKFRTNN	0.666
LVCYLSCVACIN	0.0279
LVHYLSCVACIN	0.188
